The target of assay [1] is T1, erythrocytes (red blood cells) carrying the EBA-175 receptor glycophorin A (human, UniProt P02724 20-150, sialic acid residues (removed by neuraminidase treatment in FIG. 12)).
T1 construct: whole, on cells; The assays used whole erythrocytes; also called RBC; human RBCs
T1 sequence: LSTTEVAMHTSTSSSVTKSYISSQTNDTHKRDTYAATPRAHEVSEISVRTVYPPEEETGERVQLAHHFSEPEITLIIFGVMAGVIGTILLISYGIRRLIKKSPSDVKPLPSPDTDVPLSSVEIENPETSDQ
Nature of the assay: erythrocyte binding assay.

For assay [2], the target named is T1, erythrocytes (red blood cells) carrying …. Put plainly: erythrocyte binding assay with human RBCs with or without neuraminidase treatment, immunoblot read-out.

B1: Pichia pastoris-expressed recombinant EBA-175 region II (RII) protein, N-glycosylated (ligand)
chain: GRNTSSNNEVLSNCREKRKGMKWDCKKKNDRSNYVCIPDRRIQLCIVNLSIIKTYTKETMKDHFIEASKKESQLLLKKNDNKYNSKFCNDLKNSFLDYGHLAMGNDMDFGGYSTKAENKIQEVFKGAHGEISEHKIKNFRKKWWNEFREKLWEAMLSEHKNNINNCKNIPQEELQITQWIKEWHGEFLLERDNRSKLPKSKCKNNTLYEACEKECIDPCMKYRDWIIRSKFEWHTLSKEYETQKVPKENAENYLIKISENKNDAKVSLLLNNCDAEYSKYCDCKHTTTLVKSVLNGNDNTIKEKREHIDLDDFSKFGCDKNSVDTNTKVWECKKPYKLSTKDVCVPPRRQELCLGNIDRIYDKNLLMIKEHILAIAIYESRILKRKYKNKDDKEVCKIINKTFADIRDIIGGTDYWNDLSNRKLVGKINTNSNYVHRNKQNDKLFRDEWWKVIKKDVWNVISWVFKDKTVCKEDDIENIPQFFRWFSEWGDDYCQDKTKMIETLKVECKEKPCEDDNCKRKCNSYKEWISKKKEEYNKQAKQYQEYQKGNNYKMYSEFKSIKPEVYLKKYSEKCSNLNFEDEFKEELHSDYKNKCTMCPEVKDVPISIIRNNEQTS
modifications: about 1 of 5 putative N-glycosylation sites occupied (Man14-16GlcNAc2) when expressed in P. pastoris
notes: also called EBA-175 RII; P. pastoris derived EBA-175 RII protein
With B1, the binding result in assay [1] is reported as “binds”.

B2: Non-N-glycosylated EBA-175 RII protein (RII-N-Gly-) expressed in Pichia pastoris (ligand)
chain: GRQTSSNNEVLSNCREKRKGMKWDCKKKNDRSNYVCIPDRRIQLCIVNLAIIKTYTKETMKDHFIEASKKESQLLLKKNDNKYNSKFCNDLKNSFLDYGHLAMGNDMDFGGYSTKAENKIQEVFKGAHGEISEHKIKNFRKKWWNEFREKLWEAMLSEHKNNINNCKNIPQEELQITQWIKEWHGEFLLERDNRAKLPKSKCKNNALYEACEKECIDPCMKYRDWIIRSKFEWHTLSKEYETQKVPKENAENYLIKISENKNDAKVSLLLNNCDAEYSKYCDCKHTTTLVKSVLNGNDNTIKEKREHIDLDDFSKFGCDKNSVDTNTKVWECKKPYKLSTKDVCVPPRRQELCLGNIDRIYDKNLLMIKEHILAIAIYESRILKRKYKNKDDKEVCKIIQKTFADIRDIIGGTDYWNDLSNRKLVGKINTNSNYVHRNKQNDKLFRDEWWKVIKKDVWNVISWVFKDKTVCKEDDIENIPQFFRWFSEWGDDYCQDKTKMIETLKVECKEKPCEDDNCKRKCNSYKEWISKKKEEYNKQAKQYQEYQKGNNYKMYSEFKSIKPEVYLKKYSEKCSNLNFEDEFKEELHSDYKNKCTMCPEVKDVPISIIRNNEQTS
notes: also called mutated RII protein; non-N-glycosylated RII
In the case of B2, the binding result in assay [2] is on record as “binds”.
